In article PMC3337157 (Small GTPases, 2011):

Target: T1, Rnd1 mutant W66L (residues 5-200) (UniProt Q92730 5-200, W66L)
T1 sequence (looked up): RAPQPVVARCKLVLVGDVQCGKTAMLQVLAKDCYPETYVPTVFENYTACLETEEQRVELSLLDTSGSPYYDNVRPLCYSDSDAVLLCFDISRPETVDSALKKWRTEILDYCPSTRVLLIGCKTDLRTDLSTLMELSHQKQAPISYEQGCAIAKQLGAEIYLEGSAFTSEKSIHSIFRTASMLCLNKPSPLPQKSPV
Experiment: ITC

B1: plexin-B1 Rho GTPase binding domain (RBD) (domain or fragment)
chain: DVEYRPLTLNALLAVGPGAGEAQGVPVKVLDCDTISQAKEKMLDQLYKGVPLTQRPDPRTLDVEWRSGVAGHLILSDEDVTSEVQGLWRRLNTLQHYKVPDGATVALVPCLTKHVLRENQ
B1 showed a Ka of 209000 M⁻¹, a Kd of 4.8 ± 0.5 µM and a dH of -3.9 ± 0.1 kcal/mol. The “stoichiometry N” value was 0.98.
